Common to all, as to experiment: BLI
Assay [1] concerns the target H3ssF_C, H3 stabilized HA stem ferritin nanoparticle, design C (influenza A virus A/Finland/486/2004 (H3N2) | not stated) (UniProt Q9ZLI1).
In assay [2] the target is H3ssF_H, H3 stabilized HA stem ferritin nanoparticle, design H (influenza A virus A/Finland/486/2004 (H3N2) | not stated) (UniProt Q9ZLI1).
For assay [3], the target named is full-length H3 HA trimer (influenza A virus (H3)).

pKd: −log10 of the molar value.

With CT149 Fab, in assay [1], the pKd (usually −log10 of the Kd, conventionally taken in molar units) is 7.67; the koff (as a rule, the rate constant with which the complex falls apart) stood at 0.017 s⁻¹; the kon (in general, the rate constant with which the complex forms) came out at 810000 M⁻¹ s⁻¹. Moreover, in assay [2], the negative logarithm of the Kd (pKd) is 7.65, the koff was 0.018 s⁻¹ and the on-rate constant (kon) was found to be 820000 M⁻¹ s⁻¹. Moreover, in assay [3], the pKd was 7.37, the off-rate (koff) amounted to 0.0032 s⁻¹ and the kon turned out to be 75000 M⁻¹ s⁻¹.

The record behind these values is PMC6391921.
